This is an account of results in publication PMC10462622.

Assay [1] deals with HIV-1 NL4-3 Vif N48H (residues 1-176) (HIV-1 (pNL4-3)) (UniProt P12504).
Assay [2] addresses HIV-1 pNL4-3 Vif N48H/R93E, expressed in HEK293T (HIV-1 (pNL4-3)) (UniProt P12504).

On to “human A3H K97Q/E70R, expressed in HEK293T (natural protein)”, for which the Vif-mediated degradation assay: resistance of A3H to Vif (+N48H), Western blot in assay [1] was 40%.

“human A3H haplotype II K97Q (MBP tag cleaved) (natural protein)”: in assay [2], the Vif-mediated degradation assay: increase of the A3H level in the presence of the Vif mutant, Western blot was 70%.
